Measured values taken from PMC4390766.
Like-named read-outs stand apart in the source and are kept apart here.

Tests used:
β-catenin [1] = target: β-catenin (UniProt P35222); conditions: cited from earlier work
β-catenin [2] = target: β-catenin (UniProt P35222); conditions: cited from earlier work; remark: listed apart in the source
[3] = target: HMP-2_(54arm) (C. elegans) (UniProt O44326); experiment: ITC
[4] = target: HMP-2_(54end) (C. elegans) (UniProt O44326); experiment: ITC

UniProt P35222, sequence (P35222 2-781): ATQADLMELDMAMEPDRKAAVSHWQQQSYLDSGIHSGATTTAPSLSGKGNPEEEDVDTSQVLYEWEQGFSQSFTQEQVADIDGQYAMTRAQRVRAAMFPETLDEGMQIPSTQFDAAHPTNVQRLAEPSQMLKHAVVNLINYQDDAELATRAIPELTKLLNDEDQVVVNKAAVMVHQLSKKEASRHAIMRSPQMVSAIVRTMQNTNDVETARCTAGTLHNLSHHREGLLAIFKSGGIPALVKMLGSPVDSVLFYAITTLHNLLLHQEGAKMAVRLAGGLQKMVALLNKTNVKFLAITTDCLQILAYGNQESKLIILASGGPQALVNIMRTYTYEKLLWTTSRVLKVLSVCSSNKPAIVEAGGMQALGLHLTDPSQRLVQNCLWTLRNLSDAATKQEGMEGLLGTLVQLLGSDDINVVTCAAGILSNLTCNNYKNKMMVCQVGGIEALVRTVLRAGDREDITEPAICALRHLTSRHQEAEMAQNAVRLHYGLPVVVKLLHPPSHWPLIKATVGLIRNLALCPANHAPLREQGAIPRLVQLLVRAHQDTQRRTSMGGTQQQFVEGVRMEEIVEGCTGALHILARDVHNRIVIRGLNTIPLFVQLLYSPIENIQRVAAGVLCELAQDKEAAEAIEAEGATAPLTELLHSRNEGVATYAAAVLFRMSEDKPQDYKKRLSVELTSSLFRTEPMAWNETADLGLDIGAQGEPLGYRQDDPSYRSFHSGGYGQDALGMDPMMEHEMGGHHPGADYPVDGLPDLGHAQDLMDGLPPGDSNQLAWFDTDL

For “E-cadherin cytoplasmic domain (from UniProt P12830)”, the Kd (β-catenin [1]) is given as 46 nM and the Kd (β-catenin [2]) is given as 0.052 nM.

With “HMR-1(T1215A)_(cyto80), non-phosphorylated (domain or fragment)” the Kd [3] was 610 nM.

HMR-1_(cyto80) (domain or fragment) gave a Kd [3] of 380 nM.

Work on “pHMR-1(T1215A)_(cyto80) (domain or fragment)” yielded a Kd [3] of 26 nM.

pHMR-1_(cyto80) (domain or fragment) showed a Kd [3] of 3.1 nM and a Kd [4] of 23 nM.
